Laboratory results taken from patent US20230250154A1 (CYTONICS, published 2023).
Read-outs that look alike come from different tables or passages of the source.

How the values were obtained:
Assay in all cases: cell-based or functional assay
MMP1 = target: T1, MMP1 (human, UniProt P03956 100-469, limits assumed)
T1 sequence (looked up): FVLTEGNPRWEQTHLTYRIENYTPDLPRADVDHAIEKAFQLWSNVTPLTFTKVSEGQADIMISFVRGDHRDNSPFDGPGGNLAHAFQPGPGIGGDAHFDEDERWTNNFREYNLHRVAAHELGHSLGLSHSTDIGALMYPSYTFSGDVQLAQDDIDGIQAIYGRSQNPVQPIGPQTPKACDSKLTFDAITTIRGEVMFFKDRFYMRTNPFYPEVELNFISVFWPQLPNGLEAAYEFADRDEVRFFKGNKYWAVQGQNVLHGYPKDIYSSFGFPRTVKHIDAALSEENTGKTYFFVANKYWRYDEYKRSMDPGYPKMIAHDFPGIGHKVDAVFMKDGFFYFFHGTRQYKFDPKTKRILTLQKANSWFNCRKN

Cathepsin G [1] = target: T2, Cathepsin G (UniProt P08311 21-244)
T2 sequence (looked up): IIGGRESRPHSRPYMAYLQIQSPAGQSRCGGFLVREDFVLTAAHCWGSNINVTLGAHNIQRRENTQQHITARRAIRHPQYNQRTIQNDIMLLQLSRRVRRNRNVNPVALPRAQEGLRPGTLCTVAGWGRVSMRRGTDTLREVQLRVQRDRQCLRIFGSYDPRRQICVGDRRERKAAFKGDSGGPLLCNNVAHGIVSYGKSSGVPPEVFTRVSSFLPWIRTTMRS

Elastase [2] = target: Elastase
MMP8 = MMP8 (human, UniProt P22894 101-467, limits assumed)
Sequence of MMP8 (P22894 101-467 limits assumed): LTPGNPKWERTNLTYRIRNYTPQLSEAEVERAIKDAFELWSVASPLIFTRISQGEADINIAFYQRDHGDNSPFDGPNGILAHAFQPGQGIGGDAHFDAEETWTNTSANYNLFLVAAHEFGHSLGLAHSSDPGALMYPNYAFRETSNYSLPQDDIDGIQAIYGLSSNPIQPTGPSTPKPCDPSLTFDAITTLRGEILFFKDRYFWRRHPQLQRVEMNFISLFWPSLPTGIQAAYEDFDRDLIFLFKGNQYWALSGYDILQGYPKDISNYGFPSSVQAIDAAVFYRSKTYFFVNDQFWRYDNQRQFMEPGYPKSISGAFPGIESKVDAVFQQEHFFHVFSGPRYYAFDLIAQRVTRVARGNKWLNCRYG

MMP7 = target: T3, MMP7 (UniProt P09237 95-267, limits assumed)
T3 sequence (looked up): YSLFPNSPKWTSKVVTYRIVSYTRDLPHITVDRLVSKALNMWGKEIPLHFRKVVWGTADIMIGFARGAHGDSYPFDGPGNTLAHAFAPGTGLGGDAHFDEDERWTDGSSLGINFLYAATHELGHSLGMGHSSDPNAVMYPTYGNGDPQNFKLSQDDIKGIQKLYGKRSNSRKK

MMP13 = MMP13 (human, UniProt P45452 104-471, limits assumed)
ADAMTS5 = target: T4, ADAMTS5 (human, UniProt Q9UNA0 262-622, limits assumed)
T4 sequence (looked up): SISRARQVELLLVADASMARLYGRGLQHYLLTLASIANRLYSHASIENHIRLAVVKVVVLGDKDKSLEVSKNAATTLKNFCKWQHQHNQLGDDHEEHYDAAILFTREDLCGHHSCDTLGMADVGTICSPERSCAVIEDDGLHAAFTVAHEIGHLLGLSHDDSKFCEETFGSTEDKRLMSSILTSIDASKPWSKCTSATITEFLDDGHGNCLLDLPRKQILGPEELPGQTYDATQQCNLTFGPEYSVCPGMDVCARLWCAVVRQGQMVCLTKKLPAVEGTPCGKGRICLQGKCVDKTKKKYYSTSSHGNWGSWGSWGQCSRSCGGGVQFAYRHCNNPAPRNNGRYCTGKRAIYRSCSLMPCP

MMP2 = target: T5, MMP2 (human, UniProt P08253 110-660, limits assumed)
T5 sequence (looked up): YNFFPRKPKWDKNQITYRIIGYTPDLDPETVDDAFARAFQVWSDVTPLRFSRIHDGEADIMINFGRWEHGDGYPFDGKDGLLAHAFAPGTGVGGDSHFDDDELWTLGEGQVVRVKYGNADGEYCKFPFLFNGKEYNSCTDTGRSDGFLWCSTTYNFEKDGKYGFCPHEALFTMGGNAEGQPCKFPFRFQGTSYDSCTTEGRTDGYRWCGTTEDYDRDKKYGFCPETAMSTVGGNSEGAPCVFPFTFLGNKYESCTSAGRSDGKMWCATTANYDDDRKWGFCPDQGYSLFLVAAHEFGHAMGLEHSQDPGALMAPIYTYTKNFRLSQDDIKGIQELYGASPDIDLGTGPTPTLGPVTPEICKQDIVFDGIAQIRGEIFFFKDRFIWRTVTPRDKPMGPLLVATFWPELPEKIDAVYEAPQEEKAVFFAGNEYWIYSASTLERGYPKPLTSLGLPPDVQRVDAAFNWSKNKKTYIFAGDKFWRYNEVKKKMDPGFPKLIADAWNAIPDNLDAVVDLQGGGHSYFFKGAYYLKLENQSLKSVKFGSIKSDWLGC

MMP9 = MMP9 (human, UniProt P14780 107-707, limits assumed)
Sequence of MMP9 (P14780 107-707 limits assumed): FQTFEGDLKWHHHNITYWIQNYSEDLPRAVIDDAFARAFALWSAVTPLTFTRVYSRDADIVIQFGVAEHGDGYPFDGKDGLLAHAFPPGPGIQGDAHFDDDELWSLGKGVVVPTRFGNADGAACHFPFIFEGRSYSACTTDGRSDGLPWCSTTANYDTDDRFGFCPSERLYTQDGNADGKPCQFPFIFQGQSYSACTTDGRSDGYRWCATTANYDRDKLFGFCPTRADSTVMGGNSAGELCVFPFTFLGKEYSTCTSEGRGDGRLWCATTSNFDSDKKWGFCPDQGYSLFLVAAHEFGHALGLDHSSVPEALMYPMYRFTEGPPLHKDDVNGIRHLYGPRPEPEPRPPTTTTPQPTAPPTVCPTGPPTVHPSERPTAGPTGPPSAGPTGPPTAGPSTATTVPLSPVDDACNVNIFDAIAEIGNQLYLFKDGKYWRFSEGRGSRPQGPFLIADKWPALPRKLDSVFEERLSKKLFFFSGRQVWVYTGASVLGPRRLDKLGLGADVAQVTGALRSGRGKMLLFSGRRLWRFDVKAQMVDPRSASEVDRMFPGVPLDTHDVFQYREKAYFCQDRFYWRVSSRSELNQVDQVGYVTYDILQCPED

MMP3 = MMP3 (human, UniProt P08254 100-477, limits assumed)
Sequence of MMP3 (P08254 100-477 limits assumed): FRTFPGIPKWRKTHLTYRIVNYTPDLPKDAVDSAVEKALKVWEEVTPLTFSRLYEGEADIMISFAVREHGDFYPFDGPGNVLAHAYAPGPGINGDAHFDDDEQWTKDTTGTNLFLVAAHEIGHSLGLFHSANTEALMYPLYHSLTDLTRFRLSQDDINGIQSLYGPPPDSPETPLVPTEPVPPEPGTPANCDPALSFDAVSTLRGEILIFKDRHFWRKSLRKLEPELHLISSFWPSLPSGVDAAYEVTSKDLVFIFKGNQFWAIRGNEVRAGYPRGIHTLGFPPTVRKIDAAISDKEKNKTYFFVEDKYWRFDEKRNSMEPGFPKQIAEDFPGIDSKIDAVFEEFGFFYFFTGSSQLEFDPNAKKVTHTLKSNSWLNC

Cathepsin G [3] = target: T2, Cathepsin G; remark: listed apart in the source
Elastase [4] = target: Elastase; remark: listed apart in the source

B1: Variant A2M, bait region SEQ ID NO 29 (other)
chain: SVSGKPQYMVLVPSLLHTETTEKGCVLLSYLNETVTVSASLESVRGNRSLFTDLEAENDVLHCVAFAVPKSSSNEEVMFLTVQVKGPTQEFKKRTTVMVKNEDSLVFVQTDKSIYKPGQTVKFRVVSMDENFHPLNELIPLVYIQDPKGNRIAQWQSFQLEGGLKQFSFPLSSEPFQGSYKVVVQKKSGGRTEHPFTVEEFVLPKFEVQVTVPKIITILEEEMNVSVCGLYTYGKPVPGHVTVSICRKYSDASDCHGEDSQAFCEKFSGQLNSHGCFYQQVKTKVFQLKRKEYEMKLHTEAQIQEEGTVVELTGRQSSEITRTITKLSFVKVDSHFRQGIPFFGQVRLVDGKGVPIPNKVIFIRGNEANYYSNATTDEHGLVQFSINTTNVMGTSLTVRVNYKDRSPCYGYQWVSEEHEEAHHTAYLVFSPSKSFVHLEPMSHELPCGHTQTVQAHYILNGGTLLGLKKLSFYYLIMAKGGIVRTGTHGLLVKQEDMKGHFSISIPVKSDIAPVARLLIYAVLPTGDVIGDSAKYDVENCLANKVDLSFSPSQSLPASHAHLRVTAAPQSVCALRAVDQSVLLMKPDAELSASSVYNLLPEKDLTGFPGPLNDQDDEDCINRHNVYINGITYTPVSSTNEKDMYSFLEDMGLKAFTNSKIRKPKMCPQLEQPEGEGEGPRYLTAIPENFFGVSEDLVVQISELEGRGSVEEPHTKLRKYFPETWIWDLVVVNSAGVAEVGVTVPDTITEWKAGAFCLSEDAGLGISSTASLRAFQPFFVELTMPYSVIRGEAFTLKATVLNYLPKCIRVSVQLEASPAFLAVPVEKEQAPHCICANGRQTVSWAVTPKSLGNVNFTVSAEALESQELCGTEVPSVPEHGRKDTVIKPLLVEPEGLEKETTFNSLLCPSGGEVSEELSLKLPPNVVEESARASVSVLGDILGSAMQNTQNLLQMPYGCGEQNMVLFAPNIYVLDYLNETQQLTPEIKSKAIGYLNTGYQRQLNYKHYDGSYSTFGERYGRNQGNTWLTAFVLKTFAQARAYIFIDEAHITQALIWLSQRQKDNGCFRSSGSLLNNAIKGGVEDEVTLSAYITIALLEIPLTVTHPVVRNALFCLESAWKTAQEGDHGSHVYTKALLAYAFALAGNQDKRKEVLKSLNEEAVKKDNSVHWERPQKPKAPVGHFYEPQAPSAEVEMTSYVLLAYLTAQPAPTSEDLTSATNIVKWITKQQNAQGGFSSTQDTVVALHALSKYGAATFTRTGKAAQVTIQSSGTFSSKFQVDNNNRLLLQQVSLPELPGEYSMKVTGEGCVYLQTSLKYNILPEKEEFPFALGVQTLPQTCDEPKAHTSFQISLSVSYTGSRSASNMAIVDVKMVSGFIPLKPTVKMLERSNHVSRTEVSSNHVLIYLDKVSNQTLSLFFTVLQDVPVRDLKPAIVKVYDYYETDEFAIAEYNAPCSKDLGNADYKDDDDKGASHHHHHH
Question: What does the source list for B1?
Answer: Protease Inhibition (% of WT) (MMP1): 87 % of WT; Protease Inhibition (% of WT) (Cathepsin G [1]): 84 % of WT; Protease Inhibition (% of WT) (Elastase [2]): 98 % of WT; Protease Inhibition (% of WT) (MMP8): 29 % of WT; Protease Inhibition (% of WT) (MMP7): 104 % of WT; Protease Inhibition (% of WT) (MMP13): 70 % of WT; Protease Inhibition (% of WT) (ADAMTS5): 85 % of WT; Protease Inhibition (% of WT) (MMP2): 16 % of WT; Protease Inhibition (% of WT) (MMP9): 5 % of WT; Protease Inhibition (% of WT) (MMP3): 101 % of WT

B2: Variant A2M, bait region SEQ ID NO 124 (other)
chain: SVSGKPQYMVLVPSLLHTETTEKGCVLLSYLNETVTVSASLESVRGNRSLFTDLEAENDVLHCVAFAVPKSSSNEEVMFLTVQVKGPTQEFKKRTTVMVKNEDSLVFVQTDKSIYKPGQTVKFRVVSMDENFHPLNELIPLVYIQDPKGNRIAQWQSFQLEGGLKQFSFPLSSEPFQGSYKVVVQKKSGGRTEHPFTVEEFVLPKFEVQVTVPKIITILEEEMNVSVCGLYTYGKPVPGHVTVSICRKYSDASDCHGEDSQAFCEKFSGQLNSHGCFYQQVKTKVFQLKRKEYEMKLHTEAQIQEEGTVVELTGRQSSEITRTITKLSFVKVDSHFRQGIPFFGQVRLVDGKGVPIPNKVIFIRGNEANYYSNATTDEHGLVQFSINTTNVMGTSLTVRVNYKDRSPCYGYQWVSEEHEEAHHTAYLVFSPSKSFVHLEPMSHELPCGHTQTVQAHYILNGGTLLGLKKLSFYYLIMAKGGIVRTGTHGLLVKQEDMKGHFSISIPVKSDIAPVARLLIYAVLPTGDVIGDSAKYDVENCLANKVDLSFSPSQSLPASHAHLRVTAAPQSVCALRAVDQSVLLMKPDAELSASSVYNLLPEKDLTGFPGPLNDQDDEDCINRHNVYINGITYTPVSSTNEKDMYSFLEDMGLKAFTNSKIRKPKMCPQLEQYEMHGPKEEEGLGSSELEGRGSEAIPMSIPTIPENFFGVVEEPHTKLRKYFPETWIWDLVVVNSAGVAEVGVTVPDTITEWKAGAFCLSEDAGLGISSTASLRAFQPFFVELTMPYSVIRGEAFTLKATVLNYLPKCIRVSVQLEASPAFLAVPVEKEQAPHCICANGRQTVSWAVTPKSLGNVNFTVSAEALESQELCGTEVPSVPEHGRKDTVIKPLLVEPEGLEKETTFNSLLCPSGGEVSEELSLKLPPNVVEESARASVSVLGDILGSAMQNTQNLLQMPYGCGEQNMVLFAPNIYVLDYLNETQQLTPEIKSKAIGYLNTGYQRQLNYKHYDGSYSTFGERYGRNQGNTWLTAFVLKTFAQARAYIFIDEAHITQALIWLSQRQKDNGCFRSSGSLLNNAIKGGVEDEVTLSAYITIALLEIPLTVTHPVVRNALFCLESAWKTAQEGDHGSHVYTKALLAYAFALAGNQDKRKEVLKSLNEEAVKKDNSVHWERPQKPKAPVGHFYEPQAPSAEVEMTSYVLLAYLTAQPAPTSEDLTSATNIVKWITKQQNAQGGFSSTQDTVVALHALSKYGAATFTRTGKAAQVTIQSSGTFSSKFQVDNNNRLLLQQVSLPELPGEYSMKVTGEGCVYLQTSLKYNILPEKEEFPFALGVQTLPQTCDEPKAHTSFQISLSVSYTGSRSASNMAIVDVKMVSGFIPLKPTVKMLERSNHVSRTEVSSNHVLIYLDKVSNQTLSLFFTVLQDVPVRDLKPAIVKVYDYYETDEFAIAEYNAPCSKDLGNADYKDDDDKGASHHHHHH
Question: Which results are given for B2?
Answer: Protease Inhibition (% of WT) (Cathepsin G [3]): 250 % of WT; Protease Inhibition (% of WT) (Elastase [4]): 75 % of WT
